From US20130196933A1 (BOARD OF TRUSTEES OF THE UNIVERSITY OF ILLINOIS, published 2013)
Where a chain is given by its changes, count along the chain named. Names may count otherwise.

T1: GFP-FoxM1B fusion protein, wild type (CMV GFP-FoxM1B; GFP-T7-FoxM1B WT; GFP-FoxM1B 1-748 full-length) (human, UniProt Q08050 1-763)
T1 construct: Expressed in transfected U2OS cells; also called CMV-GFP-T7-FoxM1B; GFP-FoxM1B WT; not shown: green fluorescent protein (EGFP) of the pEGFP-C2 expression plasmid (Clontech), N-terminal fusion partner
T1 sequence: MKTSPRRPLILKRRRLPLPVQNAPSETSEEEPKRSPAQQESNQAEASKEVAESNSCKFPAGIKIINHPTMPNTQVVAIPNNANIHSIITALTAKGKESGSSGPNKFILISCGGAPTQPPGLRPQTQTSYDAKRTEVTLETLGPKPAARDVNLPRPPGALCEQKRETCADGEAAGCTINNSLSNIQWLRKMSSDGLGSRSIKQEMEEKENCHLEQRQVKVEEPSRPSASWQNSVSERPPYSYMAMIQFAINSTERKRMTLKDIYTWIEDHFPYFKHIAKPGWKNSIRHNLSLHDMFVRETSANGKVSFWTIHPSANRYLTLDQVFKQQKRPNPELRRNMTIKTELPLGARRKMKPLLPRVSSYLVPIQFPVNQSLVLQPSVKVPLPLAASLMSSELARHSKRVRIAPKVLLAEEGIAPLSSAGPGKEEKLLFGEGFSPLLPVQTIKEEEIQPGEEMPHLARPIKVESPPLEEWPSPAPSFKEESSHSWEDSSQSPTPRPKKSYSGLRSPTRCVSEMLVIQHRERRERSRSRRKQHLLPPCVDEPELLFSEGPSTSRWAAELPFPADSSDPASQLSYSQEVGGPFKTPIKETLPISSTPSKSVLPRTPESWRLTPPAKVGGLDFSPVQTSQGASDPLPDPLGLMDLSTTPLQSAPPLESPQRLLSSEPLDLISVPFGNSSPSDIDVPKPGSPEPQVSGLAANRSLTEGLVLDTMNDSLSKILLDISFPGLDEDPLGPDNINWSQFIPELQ

T2: GFP-FoxM1B 1-688 protein (human, UniProt Q08050 1-703)
T2 construct: not shown: green fluorescent protein (EGFP) of the pEGFP-C2 expression plasmid (Clontech), N-terminal fusion partner
T2 sequence: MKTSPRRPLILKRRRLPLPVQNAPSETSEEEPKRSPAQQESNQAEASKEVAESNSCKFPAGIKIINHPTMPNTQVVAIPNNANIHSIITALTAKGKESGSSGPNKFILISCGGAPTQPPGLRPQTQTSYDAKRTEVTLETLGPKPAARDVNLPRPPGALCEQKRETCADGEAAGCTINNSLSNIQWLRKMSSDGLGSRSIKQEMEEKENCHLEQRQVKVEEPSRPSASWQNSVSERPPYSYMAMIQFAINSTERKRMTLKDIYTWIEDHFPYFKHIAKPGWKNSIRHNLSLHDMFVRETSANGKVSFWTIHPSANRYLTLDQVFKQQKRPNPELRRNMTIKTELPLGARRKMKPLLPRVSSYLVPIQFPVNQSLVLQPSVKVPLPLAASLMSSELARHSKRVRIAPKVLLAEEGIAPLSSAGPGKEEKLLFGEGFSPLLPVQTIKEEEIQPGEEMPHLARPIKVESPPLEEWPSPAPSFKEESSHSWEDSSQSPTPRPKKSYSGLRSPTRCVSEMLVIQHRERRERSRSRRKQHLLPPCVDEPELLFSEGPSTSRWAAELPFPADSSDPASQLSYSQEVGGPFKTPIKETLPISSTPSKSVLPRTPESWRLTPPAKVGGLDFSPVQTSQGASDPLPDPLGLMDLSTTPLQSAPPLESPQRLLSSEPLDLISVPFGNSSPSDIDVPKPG

B1: HA-p19^ARF Δ26-37 deletion mutant (other, not shown: small tags and cut ends)
chain: MGRRFLVTVRIQRAGRPLQERVFLVCALAFVNMLLRLERILRRGPHRNPGPGDDDGQRSRSSSSAQLRCRFELRGPHYLLPPGDRRSAGRLPGHAGGAARVRGSAGCARCLGSPAARLGPRAGTSRHRAIFAFRWVLFVFRWVVFVYRWERRPDRRA
notes: Deletion of p19 residues 26-37; also called CMV p19^ARFΔ26-37
B2: HA-p19^ARF WT protein (other, not shown: small tags and cut ends)
chain: MGRRFLVTVRIQRAGRPLQERVFLVKFVRSRRPRTASCALAFVNMLLRLERILRRGPHRNPGPGDDDGQRSRSSSSAQLRCRFELRGPHYLLPPGDRRSAGRLPGHAGGAARVRGSAGCARCLGSPAARLGPRAGTSRHRAIFAFRWVLFVFRWVVFVYRWERRPDRRA
notes: residues 26-44 of it are the printed p19ARF 26-44 peptide; Expressed in transfected U2OS cells; also called WT p19; HA tagged p19
B3: HA-p19^ARF Δ26-37+Δ1-14 deletion mutant (other, not shown: small tags and cut ends)
chain: GRPLQERVFLVCALAFVNMLLRLERILRRGPHRNPGPGDDDGQRSRSSSSAQLRCRFELRGPHYLLPPGDRRSAGRLPGHAGGAARVRGSAGCARCLGSPAARLGPRAGTSRHRAIFAFRWVLFVFRWVVFVYRWERRPDRRA
notes: Deletion of p19 residues 1-14 and 26-37
B4: T7-FoxM1B L641A mutant protein (other, not shown: small tags and cut ends)
chain: T1 sequence with L641A
notes: expressed in transfected U2OS cells; also called CMV T7-FoxM1B L641A; CMV FoxM1B L641A

How the values were obtained:
[1] = molecular target: T1, GFP-FoxM1B fusion protein, wild type …; assay: Co-IP with HA antibody, Western blot with GFP antibody
[2] = molecular target: T2, GFP-FoxM1B 1-688 protein; assay: Co-IP from transfected U2OS extracts
[3] = molecular target: Cdk2 protein (human, UniProt P24941 1-298); assay: Co-IP from transfected U2OS extracts with Cdk2 antibody, Western blot with T7 tag antibody
Source text: The immunoprecipitated proteins were subjected to Western blot analysis using a monoclonal antibody against the T7 epitope tagged antibody protein.

Row | Binder | binding result [1] | further results
1 | B1 | no binding | –
2 | B2 | – | binding result [2]: no binding
3 | B3 | no binding | –
4 | B4 | – | binding result [3]: no binding
